B1: diabody-Fc-diabody FZD4 CM0199 (bispecific antibody)
chain 1: EFEVQLVESGGGLVQPGGSLRLSCAASGFNSSFYFMHWVRQAPGKGLEWVATVYPYLDYTYYADSVKGRFTISADTSKNTAYLQMNSLRAEDTAVYYCARAFPGSYHPMDYWGQGTLVTVSSGGGGSDIQMTQSPSSLSASVGDRVTITCRASQSVSSAVAWYQQKPGKAPKLLIYSASSLYSGVPSRFSGSRSGTDFTLTISSLQPEDFATYYCQQSSYSLITFGQGTKVEIKLEDKTHTKVEPKTSDKTHTCPPCPAPELLGGPSVFLFPPKPKDTLMISRTPEVTCVVVDVSHEDPEVKFNWYVDGVEVHNAKTKPREEQYNSTYRVVSVLTVLHQDWLNGKEYKCKVSNKALPAPIEKTISKAKGQPREPMVFDLPPSREEMTKNQVSLWCMVKGFYPSDIAVEWESNGQPENNYKTTPPVLDSDGSFFLYSKLTVDKSRWQQGNVFSCSVMHEALHNHYTQKSLSLSPGKSGSETPGTSESATPESGGGEVQLVESGGGLVQPGGSLRLSCAASGFNFSSSSIHWVRQAPGKGLEWVASISSSYGYTYYADSVKGRFTISADTSKNTAYLQMNSLRAEDTAVYYCARGGSGVSHYGSVYYSWWALDYWGQGTLVTVSSGGGGSDIQMTQSPSSLSASVGDRVTITCRASQSVSSAVAWYQQKPGKAPKLLIYSASSLYSGVPSRFSGSRSGTDFTLTISSLQPEDFATYYCQQASYAPITFGQGTKVEIK
chain 2: EFEVQLVESGGGLVQPGGSLRLSCAASGFNSSFYFMHWVRQAPGKGLEWVATVYPYLDYTYYADSVKGRFTISADTSKNTAYLQMNSLRAEDTAVYYCARAFPGSYHPMDYWGQGTLVTVSSGGGGSDIQMTQSPSSLSASVGDRVTITCRASQSVSSAVAWYQQKPGKAPKLLIYSASSLYSGVPSRFSGSRSGTDFTLTISSLQPEDFATYYCQQSSYSLITFGQGTKVEIKLEDKTHTKVEPKSSDKTHNCPPCPAPELLGGPSVFLFPPKPKDTLMISRTPEVTCVVVDVSHEDPEVKFNWYVDGVEVHNAKTKPREEQYNSTYRVVSVLTVLHQDWLNGKEYKCKVSNKALPAPIEKTISKAKGQPREPQVYTLPPIRELMTSNQVSLSCAVKGFYPSDIAVEWESNGQPENNYKTTPPVLDSDGSFFLVSKLTVDKSRWQQGNVFSCSVMHEALHNHYTQKSLSLSPGKSGSETPGTSESATPESGGGEVQLVESGGGLVQPGGSLRLSCAASGFNLSYYYMHWVRQAPGKGLEWVASIYSSYGYTYYADSVKGRFTISADTSKNTAYLQMNSLRAEDTAVYYCARWSHVSGHYSGMDYWGQGTLVTVSSGGGGSDIQMTQSPSSLSASVGDRVTITCRASQSVSSAVAWYQQKPGKAPKLLIYSASSLYSGVPSRFSGSRSGTDFTLTISSLQPEDFATYYCQQSSYSLITFGQGTKVEIK
notes: Diabody-Fc-diabody format FZD agonist that recognizes FZD4 and LRP5; also called F4L5.13
B2: FZD4 Agonist ANT16 (bispecific antibody, human IgG1, kappa, N297G)
heavy 1: EVQLVESGGGLVQPGGSLRLSCAASGFDFTAYAMHWVRQAPGKGLEWVASIYPSGGYTAYADSVKGRFTISADTSKNTAYLQMNSLRAEDTAVYYCARRSYYFALDYWGQGTLVTVSSGGGGSDIQMTQSPSSLSASVGDRVTITCRASQSVSSAVAWYQQKPGKAPKLLIYSASSLYSGVPSRFSGSRSGTDFTLTISSLQPEDFATYYCQQYWAYYSPITFGQGTKVEIKGGGGSGGGGSEPKTSDKTHTCPPCPAPELLGGPSVFLFPPKPKDTLMISRTPEVTCVVVAVSHEDPEVKFNWYVDGVEVHNAKTKPREEQYGSTYRVVSVLTVLHQDWLNGKEYKCKVSNKALPAPIEKTISKAKGQPREPMVFDLPPSREEMTKNQVSLWCMVKGFYPSDIAVEWESNGQPENNYKTTPPVLDSDGSFFLYSKLTVDKSRWQQGNVFSCSVMHEALHNHYTQKSLSLSPGKGGGSGGGSGGGSGGGSGSTGEVQLVESGGGLVQPGGSLRLSCAASGFTLSSYSMHWVRQAPGKGLEWVAYISSYYGYTYYADSVKGRFTISADTSKNTAYLQMNSLRAEDTAVYYCARPAPGHWGFDYWGQGTLVTVSSASTKGPSVFPLAPSSKSTSGGTAALGCLVKDYFPEPVTVSWNSGALTSGVHTFPAVLQSSGLYSLSSVVTVPSSSLGTQTYICNVNHKPSNTKVDKKVEPKSCDKTHT
heavy 2: EVQLVESGGGLVQPGGSLRLSCAASGFDFSSSSIHWVRQAPGKGLEWVASISSSYGYTYYADSVKGRFTISADTSKNTAYLQMNSLRAEDTAVYYCARSWAMDYWGQGTLVTVSSGGGGSDIQMTQSPSSLSASVGDRVTITCRASQSVSSAVAWYQQKPGKAPKLLIYSASDLYSGVPSRFSGSRSGTDFTLTISSLQPEDFATYYCQQYAGAGLITFGQGTKVEIKGGGGSGGGGSEPKSSDKTHTCPPCPAPELLGGPSVFLFPPKPKDTLMISRTPEVTCVVVAVSHEDPEVKFNWYVDGVEVHNAKTKPREEQYGSTYRVVSVLTVLHQDWLNGKEYKCKVSNKALPAPIEKTISKAKGQPREPQVYTLPPIRELMTSNQVSLSCAVKGFYPSDIAVEWESNGQPENNYKTTPPVLDSDGSFFLVSKLTVDKSRWQQGNVFSCSVMHEALHNHYTQKSLSLSPGKGGGSGGGSGGGSGGGSGSTGEVQLVESGGGLVQPGGSLRLSCAASGFTLSSYSMHWVRQAPGKGLEWVAYISSYYGYTYYADSVKGRFTISADTSKNTAYLQMNSLRAEDTAVYYCARPAPGHWGFDYWGQGTLVTVSSASTKGPSVFPLAPSSKSTSGGTAALGCLVKDYFPEPVTVSWNSGALTSGVHTFPAVLQSSGLYSLSSVVTVPSSSLGTQTYICNVNHKPSNTKVDKKVEPKSCDKTHT
light: DIQMTQSPSSLSASVGDRVTITCRASQSVSSAVAWYQQKPGKAPKLLIYSASSLYSGVPSRFSGSRSGTDFTLTISSLQPEDFATYYCQQWYYAPITFGQGTKVEIKRTVAAPSVFIFPPSDEQLKSGTASVVCLLNNFYPREAKVQWKVDNALQSGNSQESVTEQDSKDSTYSLSSTLTLSKADYEKHKVYACEVTHQGLSSPVTKSFNRGEC
notes: Diabody-Fc-Fab format: bispecific LRP5 diabody at the N-terminus, two FZD4 Fabs at the C-terminus
B3: FZD4 Agonist ANT18 (bispecific antibody)
heavy 1: EVQLVESGGGMVQPGGSLRLSCAASGFNFSSSSIHWVRQAPGKGLEWVASISSSYGYTYYADSVKGRFTISADTSKNTAYLQMNSLRAEDTAVYYCARGGSGVSHYGSVYYSWWALDYWGQGTLVTVSSGGGGSDIQMTQSPSSLSASVGDRVTITCRASQSVSSAVAWYQQKPGKAPKLLIYSASSLYSGVPSRFSGSRSGTDFTLTISSLQPEDFATYYCQQASYAPITFGQGTKVEIKGGGGSGGGGSEPKTSDKTHTCPPCPAPELLGGPSVFLFPPKPKDTLMISRTPEVTCVVVAVSHEDPEVKFNWYVDGVEVHNAKTKPREEQYGSTYRVVSVLTVLHQDWLNGKEYKCKVSNKALPAPIEKTISKAKGQPREPMVFDLPPSREEMTKNQVSLWCMVKGFYPSDIAVEWESNGQPENNYKTTPPVLDSDGSFFLYSKLTVDKSRWQQGNVFSCSVMHEALHNHYTQKSLSLSPGKGGGSGGGSGGGSGGGSGSTGEVQLVESGGGLVQPGGSLRLSCAASGFTLSSYSMHWVRQAPGKGLEWVAYISSYYGYTYYADSVKGRFTISADTSKNTAYLQMNSLRAEDTAVYYCARPAPGHWGFDYWGQGTLVTVSSASTKGPSVFPLAPSSKSTSGGTAALGCLVKDYFPEPVTVSWNSGALTSGVHTFPAVLQSSGLYSLSSVVTVPSSSLGTQTYICNVNHKPSNTKVDKKVEPKSCDKTHT
heavy 2: EVQLVESGGGLVQPGGSLRLSCAASGFNLSYYYMHWVRQAPGKGLEWVASIYSSYGYTYYADSVKGRFTISADTSKNTAYLQMNSLRAEDTAVYYCARWSHVSGHYSGMDYWGQGTLVTVSSGGGGSDIQMTQSPSSLSASVGDRVTITCRASQSVSSAVAWYQQKPGKAPKLLIYSASSLYSGVPSRFSGSRSGTDFTLTISSLQPEDFATYYCQQSSYSLITFGQGTKVEIKGGGGSGGGGSEPKSSDKTHTCPPCPAPELLGGPSVFLFPPKPKDTLMISRTPEVTCVVVAVSHEDPEVKFNWYVDGVEVHNAKTKPREEQYGSTYRVVSVLTVLHQDWLNGKEYKCKVSNKALPAPIEKTISKAKGQPREPQVYTLPPIRELMTSNQVSLSCAVKGFYPSDIAVEWESNGQPENNYKTTPPVLDSDGSFFLVSKLTVDKSRWQQGNVFSCSVMHEALHNHYTQKSLSLSPGKGGGSGGGSGGGSGGGSGSTGEVQLVESGGGLVQPGGSLRLSCAASGFTLSSYSMHWVRQAPGKGLEWVAYISSYYGYTYYADSVKGRFTISADTSKNTAYLQMNSLRAEDTAVYYCARPAPGHWGFDYWGQGTLVTVSSASTKGPSVFPLAPSSKSTSGGTAALGCLVKDYFPEPVTVSWNSGALTSGVHTFPAVLQSSGLYSLSSVVTVPSSSLGTQTYICNVNHKPSNTKVDKKVEPKSCDKTHT
light: B2 light
notes: Diabody-Fc-Fab format
B4: FZD4 Agonist ANT20 (bispecific antibody)
heavy 1: EVQLVESGGGLVQPGGSLRLSCAASGFDFTAYAMHWVRQAPGKGLEWVASIYPSGGYTAYADSVKGRFTISADTSKNTAYLQMNSLRAEDTAVYYCARRSYYFALDYWGQGTLVTVSSGGGGSDIQMTQSPSSLSASVGDRVTITCRASQSVSSAVAWYQQKPGKAPKLLIYSASSLYSGVPSRFSGSRSGTDFTLTISSLQPEDFATYYCQQASYAPITFGQGTKVEIKGGGGSGGGGSEPKTSDKTHTCPPCPAPELLGGPSVFLFPPKPKDTLMISRTPEVTCVVVAVSHEDPEVKFNWYVDGVEVHNAKTKPREEQYGSTYRVVSVLTVLHQDWLNGKEYKCKVSNKALPAPIEKTISKAKGQPREPMVFDLPPSREEMTKNQVSLWCMVKGFYPSDIAVEWESNGQPENNYKTTPPVLDSDGSFFLYSKLTVDKSRWQQGNVFSCSVMHEALHNHYTQKSLSLSPGKGGGSGGGSGGGSGGGSGSTGEVQLVESGGGLVQPGGSLRLSCAASGFTLSSYSMHWVRQAPGKGLEWVAYISSYYGYTYYADSVKGRFTISADTSKNTAYLQMNSLRAEDTAVYYCARPAPGHWGFDYWGQGTLVTVSSASTKGPSVFPLAPSSKSTSGGTAALGCLVKDYFPEPVTVSWNSGALTSGVHTFPAVLQSSGLYSLSSVVTVPSSSLGTQTYICNVNHKPSNTKVDKKVEPKSCDKTHT
heavy 2: EVQLVESGGGLVQPGGSLRLSCAASGFNLSYYYMHWVRQAPGKGLEWVASIYSSYGYTYYADSVKGRFTISADTSKNTAYLQMNSLRAEDTAVYYCARWSHVSGHYSGMDYWGQGTLVTVSSGGGGSDIQMTQSPSSLSASVGDRVTITCRASQSVSSAVAWYQQKPGKAPKLLIYSASDLYSGVPSRFSGSRSGTDFTLTISSLQPEDFATYYCQQYAGAGLITFGQGTKVEIKGGGGSGGGGSEPKSSDKTHTCPPCPAPELLGGPSVFLFPPKPKDTLMISRTPEVTCVVVAVSHEDPEVKFNWYVDGVEVHNAKTKPREEQYGSTYRVVSVLTVLHQDWLNGKEYKCKVSNKALPAPIEKTISKAKGQPREPQVYTLPPIRELMTSNQVSLSCAVKGFYPSDIAVEWESNGQPENNYKTTPPVLDSDGSFFLVSKLTVDKSRWQQGNVFSCSVMHEALHNHYTQKSLSLSPGKGGGSGGGSGGGSGGGSGSTGEVQLVESGGGLVQPGGSLRLSCAASGFTLSSYSMHWVRQAPGKGLEWVAYISSYYGYTYYADSVKGRFTISADTSKNTAYLQMNSLRAEDTAVYYCARPAPGHWGFDYWGQGTLVTVSSASTKGPSVFPLAPSSKSTSGGTAALGCLVKDYFPEPVTVSWNSGALTSGVHTFPAVLQSSGLYSLSSVVTVPSSSLGTQTYICNVNHKPSNTKVDKKVEPKSCDKTHT
light: B2 light
notes: Diabody-Fc-Fab format

target: T1, FZD4 recombinant extracellular domain, Fc fusion (FZD-Fc) (UniProt Q9ULV1 37-180); assay: BLI (Octet), FZD-Fc captured on AHQ sensors, agonist in solution; apparent affinity
T1 construct: extracellular domain; also called FZD4 ECD; not shown: Fc part of the FZD-Fc protein
T1 sequence (looked up): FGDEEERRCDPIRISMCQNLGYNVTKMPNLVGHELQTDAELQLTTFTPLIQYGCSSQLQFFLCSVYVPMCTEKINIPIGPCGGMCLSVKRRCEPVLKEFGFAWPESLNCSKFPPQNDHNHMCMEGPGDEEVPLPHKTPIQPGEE

Binder | Kd
B1 | 0.7 nM
B2 | 0.6 nM
B3 | 2.6 nM
B4 | 0.7 nM
